Measured values from publication PMC6778059 (Nature cell biology, 2019).

T1: SNX5 PX domain (UniProt Q9Y5X3 25-172)
T1 sequence: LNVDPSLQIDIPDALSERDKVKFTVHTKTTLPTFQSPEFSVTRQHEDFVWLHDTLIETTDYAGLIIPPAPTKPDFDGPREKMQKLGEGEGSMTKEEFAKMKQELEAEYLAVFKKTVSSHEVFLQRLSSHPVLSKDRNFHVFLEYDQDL

T2: SNX6 PX domain (UniProt Q9UNH7 26-173)
T2 sequence: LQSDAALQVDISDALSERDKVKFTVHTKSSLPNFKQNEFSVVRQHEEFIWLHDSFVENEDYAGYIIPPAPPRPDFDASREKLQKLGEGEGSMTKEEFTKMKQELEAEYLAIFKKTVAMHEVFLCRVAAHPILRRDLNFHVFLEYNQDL


Legend:
Experiment in all cases: ITC
SNX32 PX domain = molecular target: SNX32 PX domain
SNX5 PX domain = molecular target: T1, SNX5 PX domain
SNX6 PX domain = molecular target: T2, SNX6 PX domain

Molecule	Kd (SNX5 PX domain) [µM]	binding result (SNX5 PX domain)	also measured
CI-MPR peptide (residues 2347-2375) (from UniProt P11717 2347-2375)			Kd (SNX32 PX domain): 12 µM
SNVSYKYSKVNKEEETDENETEWLMEEIQ [CI-MPR peptide (residues 2347-2375)]	~25		Kd (SNX6 PX domain): 24 µM
SNVSYKYSKVNKEEETDENETEWDMEEIQ [CI-MPR peptide L2370D]		binds	
SNVSYKYSKVNKEEETDENETEWLDEEIQ [CI-MPR peptide M2371D]		binds	
WDPVGYYYSDGSLKIVPGHARCQPG [SEMA4C peptide (residues 731-755)]	26		
REVSFYYSEENKLPEPEELDLEPENMES [IGF1R peptide (residues 1275-1302)]	15		
SNVSYKYSKVNKEEETDENETEAAAEEIQ [CI-MPR peptide WLM-AAA]		binds	
